Assays:
[1] = system: S. epidermidis, S. lugdunensis and S. haemolyticus biofilms; test: CoNS biofilm eradication, crystal violet staining; type: cell-based
Procedure: Dis. 209:1469-78 was followed. Briefly, S. epidermidis, S. lugdunensis and S. haemolyticus strains were inoculated into TSB with 2% glucose and the cultures were grown overnight. The cultures were diluted 1:50 in TSB to achieve an OD600˜0.1. Two hundred micro liter of the diluted culture was added to 1.8 ml of TSB media aliquoted into each well of a 24 well plate (˜5×10^5 CFU). The plates were kept at 37° C. under static conditions for 18 h, the contents were aspirated, the wells were washed twice with 2.0 ml of 1×PBS, and 1 mL of media+1 mL of the drug was added to each well and incubated at 37° C. for 0, 2, 4, and 24 h. TSB supplemented with 50 μg/ml Ca^++ was used for daptomycin treatment wells. The contents were aspirated out at the stipulated time points and the wells were washed with 2 ml of 1×PBS. The wells were allowed to dry at 37° C. for 15 min and stained with 1 mL of 1% CV for 5 min. The wells were washed with 1 mL of 1×PBS, air dried and observed for intensity of blue color.
0.1% CV was used for staining biofilms. Post staining and washing steps, 1 mL 30% acetic acid is added to each well, incubated in RT for 5-10 min, contents in the well are mixed thoroughly and OD was read at 570 nm.

[2] = system: S. aureus BK18 and B9377 persisters; test: P128 and antibiotic activity on persisters (CFU); type: cell-based, Staphylococcus aureus; conditions: for CFU/mL after treatment of persisters: 1×MIC, P128 1 h, antibiotics 6 h
Procedure: Persisters were generated as above were treated with P128 and antibiotics (Ref: Gutiérrez, et al. (2014) Effective Removal of Staphylococcal Biofilms by the Endolysin LysH5 PLoS One 9(9): e107307).
To 450 μL aliquots, P128. Daptomycin and Vancomycin (in saline) were added (individually) each at 1×MIC Conc., and another 450 μL aliquot was taken as control. The persister samples treated with P128 were incubated for 1 h, 37° C., and 200 rpm and those treated with antibiotics were incubated for 6 h, 37° C., and 200 rpm. After incubation samples were serially log diluted and plated.

[3] = system: S. aureus biofilm; test: Bactericidal activity on biofilm (CFU reduction); type: cell-based, Staphylococcus aureus
Procedure: In order to determine whether P128 could also act as a bactericidal agent in biofilms, the CFU reduction were monitored in S. aureus ATCC 29213 72 h preformed biofilms treated with various concentrations of P128 for 6 h. For CFU enumeration in catheter biofilm, the catheters were removed from the tubes, rinsed twice in PBS and placed in eppendorf tubes containing 1 mL PBS. To release the adhered biofilm into PBS, the catheters were scraped using inoculation loop. The samples were vortexed thoroughly and plated on LB agar plates.

[4] = system: S. aureus biofilms; test: MBIC and checkerboard synergy on preformed biofilm (MTT assay); type: cell-based, Staphylococcus aureus
Procedure: […] LB supplemented with 50 μg/mL CaCl2 was used for daptomycin treatment wells. The contents of the well was aspirated out and discarded. The biofilm adhered to the wells was quantified by MTT assay as described above. The MBIC was defined as the minimum concentration of P128 or the drug showing no colour development. […] In each experiment, in addition to the combination MBIC, the MBIC of each drug was also determined individually. The fractional MBIC concentrations were determined by MTT dye method as described above. The FICI and synergy was also calculated in a similar manner.
The ability of P128 to inhibit growth of S. aureus in a preformed biofilm was measured by determining minimum biofilm inhibition concentration (MBIC), defined as minimum concentration showing growth inhibition in a MTT based assay. […] 11:226.
The assay was optimized using the standard S. aureus strain ATCC 29213. An overnight-grown culture of the strain was diluted 1:40 in LB broth 200 μL of diluted culture was aliquoted into microtiter plate wells. Microplates were placed in a shaker-incubator set to 37° C., and 100 rpm for 24 h followed by 48 h incubation under static conditions at 37° C. The contents of one set of four wells were aspirated and discarded. Wells were washed twice with 1×PBS and the presence of biofilm in the wells at the end of this 72-hour period was determined by metabolic dye-reduction assay method using MTT (3-(4, 5-dimethylthiazol-5-diphenyltetrazolium bromide; Himedia). In this assay, live cells reduce the dye leading to color formation which can be read at 570 nm, and the intensity of color can be correlated to number of live cells. 100 μL of PBS was added to the wells along with 10 μL of MTT solution. The plate was incubated for 2 h in the dark. After this, 110 μL of solvent solution solubilizing agent was added and the plate was incubated for 15 minutes at ambient temperature with gentle agitation. The absorbance was read at 570 nm in a microplate reader. Another set of four wells was processed for harvesting the biofilm and determination of CFUs present by plating on solid media. For biofilm inhibitory studies, the wells were washed twice with 1×PBS and challenged with various concentrations of P128 or other antibiotic drugs and incubated for 24 h at 37° C. The contents of the well was aspirated out and discarded. The biofilm adhered to the wells was quantified by MTT assay as described above. The MBIC was defined as the minimum concentration of P128 or the drug showing no colour development. […] In each experiment, in addition to the combination MBIC, the MBIC of each drug was also determined individually. The fractional MBIC concentrations were determined by MTT dye method as described above. The FICI and synergy was also calculated in a similar manner.
In order to determine whether P128 could synergize with known anti-Staphylococcus drugs to inhibit S. aureus in biofilms. […] The assays were performed in a 96 well checkerboard format using various concentrations of P128 and one of the antibiotics.

B1: P128: anti-staphylococcal chimeric protein: phage tail associated muralytic enzyme (TAME) cell wall-degrading region plus staphylococcus-specific binding region; SEQ ID NO: 1 (protein)
chain: MSLDSLKKYNGKLPKHDPSFVQPGNRHYKYQCTWYAYNRRGQLGIPVPLWGDAADWIGGAKGAGYGVGRTPKQGACVIWQRGVQGGSPQYGHVAFVEKVLDGGKKIFISEHNYATPNGYGTRTIDMSSAIGKNAQFIYDKKLETPNTGWKTNKYGTLYKSESASFTPNTDIITRTTGPFRSMPQSGVLKAGQTIHYDEVMKQDGHVWVGYTGNSGQRIYLPVRTWNKSTNTLGVLWGTIK
modifications: P128 chimera
Removal of visual biomass ([1]; P128 8 μg/mL (1×MIC), SOC antibiotics 250×MIC or 100×MIC): removed all visual biomass | Time of treatment to eliminate the biofilms ([1]; P128 at 1×MIC (8 μg/mL)): ≤ 2 h | OD570 of crystal violet vs cell control ([1]; even after 24 h, all three CoNS sp.): significant drop in OD | CFU/mL after treatment of persisters ([2]; B9377 Daptomycin persisters): 1 × 10^1 CFU/mL | CFU/mL after treatment of persisters ([2]; B9377 Vancomycin persisters): 2.5 × 10^1 CFU/mL | CFU/mL after treatment of persisters ([2]; BK18 Daptomycin persisters): 1 × 10^1 CFU/mL | CFU/mL after treatment of persisters ([2]; BK18 Vancomycin persisters): 5 × 10^1 CFU/mL | Drop in CFU ([2]; Vancomycin persisters (1×10^6 CFU/mL) of S. aureus BK18 and B9377 treated with P128): ~5 log | CFU recovered ([2]; daptomycin persisters of S. aureus treated with P128): < 10 CFU/mL | Cells killed ([3]; S. aureus ATCC 29213 72 h biofilm, P128 7.8 μg/mL, 6 h): > 90% | Cell killing ([3]; S. aureus ATCC 29213 72 h biofilm, P128 greater than 31 μg/mL, 6 h): 99.9% | Reduction in CFU counts ([3]; S. aureus MW2 biofilm on catheters, P128 8 μg/mL, daptomycin 10 μg/mL, vancomycin 15 μg/mL): 3 log | MBIC fold higher than planktonic MIC ([4]; 2 h assay, sensitive and resistant strains of S. aureus): 1-4 fold | MBIC ([4]; S. aureus 8325-4 biofilm, 2 h): 7.8 µg/mL | MBIC ([4]; S. aureus 8325-4 biofilm, 4 h): 15.6 µg/mL | MBIC ([4]; S. aureus 8325-4 biofilm, 6 h): 15.6 µg/mL | MBIC ([4]; S. aureus 8325-4 biofilm, 8 h): 31.25 µg/mL | MBIC ([4]; S. aureus 8325-4 biofilm, 24 h): 1000 µg/mL | MBIC ([4]; S. aureus ATCC 29213 biofilm, 2 h): 3.9 µg/mL | MBIC ([4]; S. aureus ATCC 29213 biofilm, 4 h): 15.6 µg/mL | MBIC ([4]; S. aureus ATCC 29213 biofilm, 6 h): 15.6 µg/mL | MBIC ([4]; S. aureus ATCC 29213 biofilm, 8 h): 15.6 µg/mL | MBIC ([4]; S. aureus ATCC 29213 biofilm, 24 h): 250 µg/mL | MBIC ([4]; S. aureus B9241 biofilm, 2 h): 15.6 µg/mL | MBIC ([4]; S. aureus B9241 biofilm, 4 h): 125 µg/mL | MBIC ([4]; S. aureus B9241 biofilm, 6 h): 125 µg/mL | MBIC ([4]; S. aureus B9241 biofilm, 8 h): 125 µg/mL | MBIC ([4]; S. aureus B9241 biofilm, 24 h): >1000 µg/mL | MBIC ([4]; S. aureus B9356 biofilm, 2 h): 7.8 µg/mL | MBIC ([4]; S. aureus B9356 biofilm, 4 h): 15.6 µg/mL | MBIC ([4]; S. aureus B9356 biofilm, 6 h): 31.25 µg/mL | MBIC ([4]; S. aureus B9356 biofilm, 8 h): 62 µg/mL | MBIC ([4]; S. aureus B9356 biofilm, 24 h): >1000 µg/mL | MBIC ([4]; S. aureus BK1 biofilm, 2 h): 15.6 µg/mL | MBIC ([4]; S. aureus BK1 biofilm, 4 h): 31.25 µg/mL | MBIC ([4]; S. aureus BK1 biofilm, 6 h): 31.25 µg/mL | MBIC ([4]; S. aureus BK1 biofilm, 8 h): 31.25 µg/mL | MBIC ([4]; S. aureus BK1 biofilm, 24 h): 1000 µg/mL | MIC (drug alone) on biofilm ([4]; S. aureus MW2 72 h preformed biofilm, 6 hr treatment): 6.25 µg/mL | MBIC (individual) ([4]; Table 4, S. aureus ATCC 29213 preformed biofilm, 6 h): 6.04 µg/mL | MBIC (individual) ([4]; Table 4, S. aureus ATCC 29213 preformed biofilm, 24 h): 200 µg/mL | MBIC (individual) ([4]; Table 4, S. aureus B9241 preformed biofilm, 6 h): 105.15 µg/mL | MBIC (individual) ([4]; Table 4, S. aureus B9241 preformed biofilm, 24 h): >1000 µg/mL | MBIC (individual) ([4]; Table 4, S. aureus BK1 preformed biofilm, 6 h): 28.95 µg/mL | MBIC (individual) ([4]; Table 4, S. aureus BK1 preformed biofilm, 24 h): 400 µg/mL
